Assay results from PMC12033910.

Target: holo-PhuS H209A (Pseudomonas aeruginosa PAO1, UniProt O68880 1-354, H209A)
Assay: EMSA

B1: prrF1-50 (5'-biotin) (dsDNA)
DNA 1: AGCAGAAAAGTTTGGCGAAAGCGTTTGACATGGAAATGAGAATCATTATT
DNA 2: AATAATGATTCTCATTTCCATGTCAAACGCTTTCGCCAAACTTTTCTGCT
binding result: binds
